pEC50: −log10 of the molar value.
Legend:
[1] = molecular target: human CLL-1 on cells (human) (UniProt Q5QGZ9); test: cell-based or functional assay
[2] = molecular target: human CLL-1 on cells (human) (UniProt Q5QGZ9); test: FACS (PE-anti-human IgG), U937 cells
[3] = molecular target: human CLL-1 on cells (human) (UniProt Q5QGZ9); test: FACS (PE-anti-human IgG), HL-60 cells

Chain of human CLL-1 on cells (human) (Q5QGZ9 whole entry): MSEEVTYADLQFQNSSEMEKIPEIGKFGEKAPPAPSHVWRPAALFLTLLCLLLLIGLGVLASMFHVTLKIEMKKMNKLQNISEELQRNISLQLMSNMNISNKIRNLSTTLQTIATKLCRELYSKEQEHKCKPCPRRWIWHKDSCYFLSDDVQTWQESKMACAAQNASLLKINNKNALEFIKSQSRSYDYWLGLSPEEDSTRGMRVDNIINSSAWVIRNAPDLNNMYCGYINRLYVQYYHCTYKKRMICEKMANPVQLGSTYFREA

MCLA-117 (bispecific antibody)
CD25 on CD4 T cells, HL60 targets, EC50 [1]: 7.12 nM
CD25 on CD4 T cells, U937 targets, EC50 [1]: 2.53 nM
CD25 on CD8 T cells, HL60 targets, EC50 [1]: 7.68 nM
CD25 on CD8 T cells, U937 targets, EC50 [1]: 2.88 nM
CD69 on CD4 T cells, HL60 targets, EC50 [1]: 2.33 nM
CD69 on CD4 T cells, U937 targets, EC50 [1]: 1.19 nM
CD69 on CD8 T cells, HL60 targets, EC50 [1]: 2.89 nM
CD69 on CD8 T cells, U937 targets, EC50 [1]: 0.713 nM
U937 cell lysis, EC50 [1]: 0.128 nM
pEC50 [2]: 8.34
pEC50 [3]: 7.45

Source: patent US20250084158A1
